Test results as given in article PMC11784142, “About bacteriophage tail terminator and tail completion proteins: structure of the proximal extremity of siphophage T5 tail” (Journal of Virology, 2024).

B1: tail completion protein p143 of bacteriophage T5 (natural protein, UniProt Q6QGE0 1-255, looked up)
chain: MSLSDLARQIIKEQLDTASRSENNKNTVVYSVETGLKDPTRDGTVAQVSFKFSKPVSQDLLNIRTASILKAVSSSLDLSGDLGALENLIQATAGKKSSVGKKRSTGRVQVNFGDPSDVEDGYSGAVTGASGRFVSNSNMKIILEIVAKEYLIKDMKKAGAPLKFRTGRFANSLKIKDVMLRDSETSKGSPELNVTYNYMTRPYSVFNPAVSTYRRLSLRPYPGARNPQKLIGEAIAKAARDLIHSRYKIKVNQGT
notes: tail completion protein p143 (TCP) of bacteriophage T5; 27.8 kDa, 255 residues; Native protein of the purified tail; the density was assigned to it by the fit of an AlphaFold2 model and because it was the only tail protein not yet localised; also called TCP_(p143); Neck1; source: E. coli strain F infected with the mutant phage T5D20am30d; part of purified T5 tails
B2: tail tube protein pb6 of bacteriophage T5 (natural protein, UniProt Q6QGE2 1-464, looked up)
chain: MSLQLLRNTRIFVSTVKTGHNKTNTQEILVQDDISWGQDSNSTDITVNEAGPRPTRGSKRFNDSLNAAEWSFSTYILPYKDKNTSKQIVPDYMLWHALSSGRAINLEGTTGAHNNATNFMVNFKDNSYHELAMLHIYILTDKTWSYIDSCQINQAEVNVDIEDIGRVTWSGNGNQLIPLDEQPFDPDQIGIDDETYMTIQGSYIKNKLTILKIKDMDTNKSYDIPITGGTFTINNNITYLTPNVMSRVTIPIGSFTGAFELTGSLTAYLNDKSLGSMELYKDLIKTLKVVNRFEIALVLGGEYDDERPAAILVAKQAHVNIPTIETDDVLGTSVEFKAIPSDLDAGDEGYLGFSSKYTRTTINNLIVNGDGATDAVTAITVKSAGNVTTLNRSATLQMSVEVTPSSARNKEVTWAITAGDAATINATGLLRADASKTGAVTVEATAKDGSGVKGTKVITVTAGG
notes: tail tube protein pb6 (TTP) of bacteriophage T5; structures compared over the 464 residues; Native phage-encoded protein as it stands in the purified tail; trimeric ring (last ring of the tube, under the p142 ring); also called TTPpb6; source: E. coli strain F infected with the mutant phage T5D20am30d; part of purified T5 tails (PEG precipitation, glycerol step gradient, ion exchange)
B3: distal tail protein pb9 of bacteriophage T5 (natural protein, UniProt Q6QGE8 1-204, looked up)
chain: MRLPDPYTNPEYPGLGFESVNLVDNDPMIRDELPNGKVKEVKISAQYWGINISYPELFPDEYAFLDSRLLEYKRTGDYLDVLLPQYEAFRVRGDTKSVTIPAGQKGSQIILNTNGTLTGQPKAGDLFKLSTHPKVYKITNFSSSGNVWNISLYPDLFITTTGSEKPVFNGILFRTKLMNGDSFGSTLNNNGTYSGISLSLRESL
notes: distal tail protein pb9 (DTP) of bacteriophage T5; Native protein of the purified tail tip; hexamer; also called DTPpb9; source: E. coli strain F infected with the mutant phage T5D20am30d; part of purified T5 tails
B4: Baseplate Hub Protein pb3 of bacteriophage T5 (natural protein, UniProt Q6QGE9 1-949, looked up)
chain: MKKILDSAKNYLNTHDKLKTACLIALELPSSSGSAATYIYLTDYFRDVTYNGILYRSGKVKSISSHKQNRQLSIGSLSFTITGTAEDEVLKLVQNGVSFLDRGITIHQAIINEEGNILPVDPDTDGPLLFFRGRITGGGIKDNVNTSGIGTSVITWNCSNQFYDFDRVNGRYTDDASHRGLEVVNGTLQPSNGAKRPEYQEDYGFFHSNKSTTILAKYQVKEERYKLQSKKKLFGLSRSYSLKKYYETVTKEVDLDFNLAAKFIPVVYGVQKIPGIPIFADTELNNPNIVYVVYAFAEGEIDGFLDFYIGDSPMICFDETDSDTRTCFGRKKIVGDTMHRLAAGTSTSQPSVHGQEYKYNDGNGDIRIWTFHGKPDQTAAQVLVDIAKKKGFYLQNQNGNGPEYWDSRYKLLDTAYAIVRFTINENRTEIPEISAEVQGKKVKVYNSDGTIKADKTSLNGIWQLMDYLTSDRYGADITLDQFPLQKVISEAKILDIIDESYQTSWQPYWRYVGWNDPLSENRQIVQLNTILDTSESVFKNVQGILESFGGAINNLSGEYRITVEKYSTNPLRINFLDTYGDLDLSDTTGRNKFNSVQASLVDPALSWKTNSITFYNSKFKEQDKGLDKKLQLSFANITNYYTARSYADRELKKSRYSRTLSFSVPYKFIGIEPNDPIAFTYERYGWKDKFFLVDEVENTRDGKINLVLQEYGEDVFINSEQVDNSGNDIPDISNNVLPPRDFKYTPTPGGVVGAIGKNGELSWLPSLTNNVVYYSIAHSGHVNPYIVQQLENNPNERMIQEIIGEPAGLAIFELRAVDINGRRSSPVTLSVDLNSAKNLSVVSNFRVVNTASGDVTEFVGPDVKLAWDKIPEEEIIPEIYYTLEIYDSQDRMLRSVRIEDVYTYDYLLTYNKADFALLNSGALGINRKLRFRIRAEGENGEQSVGWATI
notes: Baseplate Hub Protein pb3 (BHP) of bacteriophage T5; Native protein of the purified tail tip; trimer; also called BHPpb3; source: E. coli strain F infected with the mutant phage T5D20am30d; part of purified T5 tails
B5: tail terminator protein p142 of bacteriophage T5 (natural protein, UniProt Q6QGE1 1-161, looked up)
chain: MDHRTSIAQAMVDRISKQMDGSQPDEYFNNLYGNVSRQTYKFEEIREFPYVAVHIGTETGQYLPSGQQWMFLELPILVYDKEKTDIQEQLEKLVADIKTVIDTGGNLEYTVSKPNGSTFPCEATDMIITSVSTDEGLLAPYGLAEINVTVRYQPPRRSLRR
notes: tail terminator protein p142 (TrP) of bacteriophage T5; a 161-residues protein; model compared over 156 residues; Native phage-encoded protein as it stands in the purified tail; hexameric ring that caps the tail tube; also called TrP_(p142); Trp_(p142); source: E. coli strain F infected with the mutant phage T5D20am30d; part of purified T5 tails (PEG precipitation, glycerol step gradient, ion …)

Columns and labels:
[1] = molecular target: B4; assay: cryo-EM structure; tail tip of native purified T5 tails; particles recentred on the lower part of BHPpb3, symmetry relaxation, no symmetry imposed; 6–10 Å in the area of the additional density; AlphaFold2 model of TCP_(p143) flexibly fitted; conditions: partners not purified
[2] = molecular target: the molecule itself; assay: cryo-EM structure; proximal extremity of native T5 tails (assembled in infected E. coli, purified as whole tails); single particle analysis, C3 symmetry imposed, 3.88 Å
[3] = molecular target: the molecule itself; assay: cryo-EM structure; tail tip of native purified T5 tails; particles recentred on the lower part of BHPpb3, symmetry relaxation, no symmetry imposed; 6–10 Å in the area of the additional density; AlphaFold2 model of TCP_(p143) flexibly fitted

Binder | stoichiometry N [2] | stoichiometry N [3] | also measured
B1 |  |  | stoichiometry N [1]: 1 copy per phage
B2 | 3 |  | 
B3 |  | 6 | 
B4 |  | 3 | 
B5 | 6 |  | 
